Measured values from the RNAGym collection of RNA variant scans (doi:10.7554/elife.80360).

B1: Twister Ribozyme (parent)
chain: AACACUGCCAAUGCCGGUCCCAAGCCCGGAUAAAAGUGGAGGGGGCGG

Variants of: B1
Assay: self-cleavage, relative activity (ratio to wild type); higher = more cleavage; co-transcriptional

Row | Variant | self-cleavage
1 | AACACUGUCAAUGCCGGUCCCCAGCCCGGAUAAAAGUGGAGGGGGCGG | 0.863
2 | AACACUGUCAAUGCCGGUCCCAGGCCCGGAUAAAAGUGGAGGGGGCGG | 0.107
3 | AACACUGUCAAUGCCGGUCCCAUGCCCGGAUAAAAGUGGAGGGGGCGG | 0.078
4 | AACACUGUCAAUGCCGGUCCCAAGCCCGGCUAAAAGUGGAGGGGGCGG | 0.15
5 | AACACUGUCAAUGCCGGUCCCAAGCCCGGGUAAAAGUGGAGGGGGCGG | 0.766
6 | AACACUGUCAAUGCCGGUCCCAAGCCCGGAUGAAAGUGGAGGGGGCGG | 0.385
7 | AACACUGUCAAUGCCGGUCCCAAGCCCGGAUUAAAGUGGAGGGGGCGG | 0.515
8 | AACACUGUCAAUGCCGGUCCCAAGCCCGGAUAAAGGUGGAGGGGGCGG | 0.559
9 | AACACUGUCAAUGCCGGUCCCAAGCCCGGAUAAAAGUGGCGGGGGCGG | 0.202
10 | AACACUGUCAAUGCCGGUCCCAAGCCCGGAUAAAAGUGGUGGGGGCGG | 0.17
11 | AACACUGUAAAUGCCGGUCCCAAGCCCGGAUAAAAGUGGAGGGGGCGG | 0.112
12 | AACACUGUCAAUGACGGUCCCAAGCCCGGAUAAAAGUGGAGGGGGCGG | 0.63
13 | AACACUGUCAAUGGCGGUCCCAAGCCCGGAUAAAAGUGGAGGGGGCGG | 0.0673
14 | AACACUGUCAAUGUCGGUCCCAAGCCCGGAUAAAAGUGGAGGGGGCGG | 0.791
15 | AACACUGUCAAUGCAGGUCCCAAGCCCGGAUAAAAGUGGAGGGGGCGG | 0.318
16 | AACACUGUCAAUGCGGGUCCCAAGCCCGGAUAAAAGUGGAGGGGGCGG | 0.0382
17 | AACACUGUCAAUGCUGGUCCCAAGCCCGGAUAAAAGUGGAGGGGGCGG | 0.768
18 | AACACUGUCAAUGCCGGUACCAAGCCCGGAUAAAAGUGGAGGGGGCGG | 0.0797
19 | AACACUGUCAAUGCCGGUGCCAAGCCCGGAUAAAAGUGGAGGGGGCGG | 0.0901
20 | AACACUGUCAAUGCCGGUCGCAAGCCCGGAUAAAAGUGGAGGGGGCGG | 0.0649
21 | AACACUGUCAAUGCCGGUCUCAAGCCCGGAUAAAAGUGGAGGGGGCGG | 0.308
22 | AACACUGUCAAUGCCGGUCCAAAGCCCGGAUAAAAGUGGAGGGGGCGG | 0.0385
23 | AACACUGUCAAUGCCGGUCCCAAGCGCGGAUAAAAGUGGAGGGGGCGG | 0.0721
24 | AACACUGUCAAUGCCGGUCCCAAGCUCGGAUAAAAGUGGAGGGGGCGG | 0.061
25 | AACACUGUCAAUGCCGGUCCCAAGCCCGGAUAAAAGUGGAGGGGGAGG | 0.5
26 | AACACUGUCAAUGCCGGUCCCAAGCCCGGAUAAAAGUGGAGGGGGGGG | 0.567
27 | AACACUGUCAAUGCCGGUCCCAAGCCCGGAUAAAAGUGGAGGGGGUGG | 0.726

Row | Variant | self-cleavage
28 | AACACUGUCAAUUCCGGUCCCAAGCCCGGAUAAAAGUGGAGGGGGCGG | 0.103
29 | AACACUGUCAAUGCCAGUCCCAAGCCCGGAUAAAAGUGGAGGGGGCGG | 0.442
30 | AACACUGUCAAUGCCCGUCCCAAGCCCGGAUAAAAGUGGAGGGGGCGG | 0.199
31 | AACACUGUCAAUGCCUGUCCCAAGCCCGGAUAAAAGUGGAGGGGGCGG | 0.459
32 | AACACUGUCAAUGCCGAUCCCAAGCCCGGAUAAAAGUGGAGGGGGCGG | 0.119
33 | AACACUGUCAAUGCCGCUCCCAAGCCCGGAUAAAAGUGGAGGGGGCGG | 0.0682
34 | AACACUGUCAAUGCCGUUCCCAAGCCCGGAUAAAAGUGGAGGGGGCGG | 0.0946
35 | AACACUGUCAAUGCCGGUCCCAAACCCGGAUAAAAGUGGAGGGGGCGG | 0.772
36 | AACACUGUCAAUGCCGGUCCCAACCCCGGAUAAAAGUGGAGGGGGCGG | 0.0664
37 | AACACUGUCAAUGCCGGUCCCAAGCCCAGAUAAAAGUGGAGGGGGCGG | 0.446
38 | AACACUGUCAAUGCCGGUCCCAAGCCCCGAUAAAAGUGGAGGGGGCGG | 0.469
39 | AACACUGUCAAUGCCGGUCCCAAGCCCGCAUAAAAGUGGAGGGGGCGG | 0.117
40 | AACACUGUCAAUGCCGGUCCCAAGCCCGGAUAAAAAUGGAGGGGGCGG | 0.18
41 | AACACUGUCAAUGCCGGUCCCAAGCCCGGAUAAAACUGGAGGGGGCGG | 0.106
42 | AACACUGUCAAUGCCGGUCCCAAGCCCGGAUAAAAUUGGAGGGGGCGG | 0.109
43 | AACACUGUCAAUGCCGGUCCCAAGCCCGGAUAAAAGUAGAGGGGGCGG | 0.572
44 | AACACUGUCAAUGCCGGUCCCAAGCCCGGAUAAAAGUUGAGGGGGCGG | 0.481
45 | AACACUGUCAAUGCCGGUCCCAAGCCCGGAUAAAAGUGCAGGGGGCGG | 0.147
46 | AACACUGUCAAUGCCGGUCCCAAGCCCGGAUAAAAGUGGACGGGGCGG | 0.0951
47 | AACACUGUCAAUGCCGGUCCCAAGCCCGGAUAAAAGUGGAUGGGGCGG | 0.117
48 | AACACUGUCAAUGCCGGUCCCAAGCCCGGAUAAAAGUGGAGCGGGCGG | 0.217
49 | AACACUGUCAAUGCCGGUCCCAAGCCCGGAUAAAAGUGGAGGUGGCGG | 0.131
50 | AACACUGUCAAUGCCGGUCCCAAGCCCGGAUAAAAGUGGAGGGAGCGG | 0.658
51 | AACACUGUCAAUGCCGGUCCCAAGCCCGGAUAAAAGUGGAGGGCGCGG | 0.598
52 | AACACUGUCAAUGCCGGUCCCAAGCCCGGAUAAAAGUGGAGGGGUCGG | 0.313
53 | AACACUGUCAAUGCCGGUCCCAAGCCCGGAUAAAAGUGGAGGGGGCAG | 0.43
54 | AACACUGUCAAUGCCGGUCCCAAGCCCGGAUAAAAGUGGAGGGGGCCG | 0.199
